From patent publication US12186374B2 (Sanofi-Aventis Deutschland GmbH, priority 2014, dated 2025)

Tests used:
[1] = system: patients with Type 2 diabetes mellitus (T2DM); assay: Patients with HbA1c ≤6.5% or <7% at Week 30 (Example 2); type: in vivo, human; settings: mITT population
Description: (§1) Efficacy analysis was based on modified intent-to-treat (mITT) population using efficacy assessments collected during the study, including those obtained after IMP discontinuation or introduction of rescue therapy. The mITT population consisted of all randomized patients who had both a baseline assessment and at least one post-baseline assessment of any primary or secondary efficacy variables.
(§2) Similar MMRM method or ANCOVA was applied on continuous secondary efficacy endpoints and Cochran-Mantei-Haenszel method stratified by randomization strata was applied on categorical efficacy endpoints.

[2] = system: patients with Type 2 diabetes mellitus (T2DM); assay: Standardized meal test: 2-hour glucose excursion and 2-hour PPG (Example 2); type: in vivo, human
Procedure: Patients will undergo a standardized meal challenge to assess fasting and postprandial glucose (central laboratory), as well as plasma glucose excursion.
The standardized meal contains approximately 600 kcal and is composed of 50 to 55% carbohydrate, 15 to 20% protein and 25 to 30% fat.
On the day of the standardized meal test, the patients will come to the investigational site in the morning, in fasting conditions for at least 8 hours and must not eat any food or drink, except water, before the scheduled standardized meal test. […] Patient in insulin glargine group will inject their insulin glargine at their usual injection time.
The standardized meal for all patients should be consumed within a 15-minute period. Blood for plasma glucose is drawn 5 times: • 30 minutes prior to the start of the meal and before IMP administration if the IMP is injected before breakfast; • Just before the start of the standardized meal (0 minute), • 30 minutes after the start of the standardized meal, • 60 minutes after the start of the standardized meal, • 120 minutes after the start of the standardized meal.
as §2

patients with T2DM [3] = assay: HbA1c change from baseline to Week 30 (Example 3, with or without metformin); type: in vivo, human
Procedure: For the eligibility and efficacy assessments of the study, HbA1c is measured by a certified level I “National Glycohemoglobin Standardization Program” (NGSP) central laboratory.
Methodology: This was an open-label, 1:1 randomized, active-controlled, 2-arm, 30-week treatment duration, parallel-group multinational and multicenter study. The randomization was stratified by value of HbA1cat Visit 5 (Week −1) (<8%, ≥8%) and metformin use at screening (Y, N).
Diagnosis and criteria for inclusion: Inclusion criteria: Patients with type 2 diabetes mellitus diagnosed for at least 1 year and inadequately controlled on their current antidiabetic treatment. Patients had to be treated with basal insulin for at least 6 months at a stable daily dose of 15 to 40 U, alone or combined with 1 or 2 oral anti-diabetic drugs ((metformin, an SU, a glinide, a DPP-4 inhibitor, or a SGLT-2 inhibitor) at a stable dose for at least 3 months. Key exclusion criteria for randomization (at the end of the run-in phase): HbA1c<7% or >10% at Visit 5 (week −1); mean fasting SMPG >140 mg/dL (7.8 mmol/L) for the 7 days before the randomization Visit (Visit 6); average insulin glargine daily dose <20 U or >50 U calculated for the last 3 days before Visit 6.
as §1, with “assessment” for “assessments”
The primary efficacy endpoint was analyzed using a mixed-effect model with repeated measures (MMRM). The MMRM model included the treatment groups, randomization strata, visit, treatment-by-visit interaction, and country as fixed-effect factors, and the baseline HbA1c-by-visit interaction as covariate.

patients with T2DM [4] = assay: Patients with HbA1c ≤6.5% or <7% at Week 30 (Example 3); type: in vivo, human
Description: (§3) Similar MMRM method or analysis of covariance (ANCOVA) was applied on continuous secondary efficacy endpoints and the Cochran-Mantei-Haenszel method stratified by randomization strata was applied for categorical efficacy endpoints.

patients with T2DM [5] = type: in vivo, human; settings: Example 3
Description: as §3

patients with T2DM [6] = assay: Patients requiring rescue therapy (Example 3); type: in vivo, human
Description: Routine fasting SMPG and central lab alerts on FPG (and HbA1c after Week 12) were set up to ensure that glycemic parameters remained under predefined threshold values. If values were above predefined thresholds, and no explanations were found, or appropriate actions failed, or a dose >60 U was necessary to decrease FPG and/or HbA1c below the threshold values, rescue therapy was to be introduced along with IMP and metformin (if taken). Newly initiated anti-diabetic medications, or an increase from baseline in background metformin dose were considered as a rescue therapy.

patients with T2DM [7] = assay: Symptomatic hypoglycemia (Example 3)
[8] = system: patients with Type 2 diabetes mellitus (T2DM); assay: Pancreatic events adjudicated by PSAC (Example 2)
[9] = Example 2, baseline, standardized meal test
[10] = standardized meal test, mITT population
[11] = on-treatment period, Safety population
[12] = plasma glucose <60 mg/dL [[…]], on-treatment period, Safety population
[13] = plasma glucose ≤70 mg/dL [[…]], on-treatment period, Safety population

## Gly(A21)-Arg(B31)-Arg(B32)-human insulin [Insulin Glargine]
[1]
  % of patients with HbA1c ≤[…] at Week 30: (39.5%)
  Number of patients with HbA1c ≤[…] at Week 30: 184 patients
[1]; listed as insulin glargine
  % of patients with HbA1c ≤[…] at Week 30: 39.5%
[2]; ANCOVA, mITT population
  2-hour plasma glucose excursion, change from baseline to Week 30 (LOCF), LS Mean (SE): −0.18 (0.157) mmol/L
[2]; Example 2
  2-hour PPG change from baseline to Week 30 (LOCF) Mean (SD): −3.26 (3.54) mmol/L
  2-hour PPG change from baseline to Week 30 (LOCF) Median: -3.35 mmol/L
[2]; Example 2, ANCOVA
  2-hour PPG change from baseline to Week 30 (LOCF) LS Mean (SE): −3.31 (0.178) mmol/L
[2]; Example 2, ANCOVA, listed as insulin glargine
  2-hour PPG change from baseline to Week 30 (LOCF) LS Mean (SE): -3.31 mmol/L
[2]; Example 2, Week 30 (LOCF)
  2-hour postprandial plasma glucose Week 30 (LOCF) Mean (SD): 11.35 (3.12) mmol/L
  2-hour postprandial plasma glucose Week 30 (LOCF) Median: 11.20 mmol/L
[2]; Example 2, baseline to Week 30, standardized liquid breakfast meal
  2-hour glucose excursion, LS mean change: -0.18 mmol/L
[2]; [9]
  2-hour postprandial plasma glucose Baseline Mean (SD): 14.61 (3.64) mmol/L
  2-hour postprandial plasma glucose Baseline Median: 14.50 mmol/L
[2]; [10]
  2-hour plasma glucose excursion, Week 30 (LOCF), Mean (SD): 4.80 (2.90) mmol/L
  2-hour plasma glucose excursion, Week 30 (LOCF), Median: 4.70 mmol/L
  2-hour plasma glucose excursion, change from baseline to Week 30 (LOCF), Mean (SD): −0.22 (2.86) mmol/L
  2-hour plasma glucose excursion, change from baseline to Week 30 (LOCF), Median: -0.10 mmol/L
Patients with T2DM [3]; Example 3
  Mean HbA1c level at Week 30: 7.5%
Patients with T2DM [3]; MMRM, mITT population
  HbA1c change from baseline to Week 30, LS Mean (SE): −0.62 (0.055) %
Patients with T2DM [3]; mITT population
  HbA1c at Week 30, Mean (SD): 7.48 (0.91) %
  HbA1c at Week 30, Median: 7.40%
Patients with T2DM [4]; Example 3
  Patients reaching HbA1c<7.0% at Week 30: 29.6%
  Patients reaching HbA1c≤[…] at Week 30: 14.2%
Patients with T2DM [4]; mITT population
  Patients with HbA1c <7% at Week 30: 108 (29.6%) Number (%)
  Patients with HbA1c ≤[…] at Week 30: 52 (14.2%) Number (%)
Patients with T2DM [5]
  Patients reaching HbA1c<7.0% with no body weight gain and no documented symptomatic hypoglycemia: 9.0%
Patients with T2DM [5]; 30-week treatment period
  Patients reaching HbA1c<7.0% at Week 30 with no documented symptomatic hypoglycemia: 18.6%
Patients with T2DM [6]
  Patients who received rescue therapy, %: 6.0%
  Patients who received rescue therapy, number: 22 patients
Patients with T2DM [7]; Example 3
  Documented symptomatic hypoglycemia event rate per patient-year: 4.22 per patient-year
  Patients with at least one event of documented (PG ≤70 mg/dL) symptomatic hypoglycemia: 42.5%
  Severe symptomatic hypoglycemia, % of patients: 0.3%
  Severe symptomatic hypoglycemia, number of events: 1 events
  Severe symptomatic hypoglycemia, number of patients: 1 patients
Patients with T2DM [7]; [11]
  Probable symptomatic hypoglycaemia: Number of events: 29
  Probable symptomatic hypoglycaemia: Number of events per patient year: 0.14
  Probable symptomatic hypoglycaemia: Number of patients with events per patient year: 0.10
  Probable symptomatic hypoglycaemia: patients with events, %: (5.5%)
  Severe symptomatic hypoglycaemia: Number of events: 1
  Severe symptomatic hypoglycaemia: Number of events per patient year: <0.01
  Severe symptomatic hypoglycaemia: Number of patients with events per patient year: <0.01
  Severe symptomatic hypoglycaemia: patients with events, %: (0.3%)
  Symptomatic hypoglycemia: Number of events: 910
  Symptomatic hypoglycemia: Number of events per patient year: 4.36
  Symptomatic hypoglycemia: Number of patients with events per patient year: 0.77
  Symptomatic hypoglycemia: patients with events, %: (44.1%)
Patients with T2DM [7]; [12]
  Documented symptomatic hypoglycaemia: Number of events: 235
  Documented symptomatic hypoglycaemia: Number of events per patient year: 1.13
  Documented symptomatic hypoglycaemia: Number of patients with events per patient year: 0.40
  Documented symptomatic hypoglycaemia: patients with events, %: (22.7%)
Patients with T2DM [7]; [13]
  Documented symptomatic hypoglycaemia: Number of events: 880
  Documented symptomatic hypoglycaemia: Number of events per patient year: 4.22
  Documented symptomatic hypoglycaemia: Number of patients with events per patient year: 0.74
  Documented symptomatic hypoglycaemia: patients with events, %: (42.5%)
[8]; Example 2
  Cases of pancreatic cancer: One
[8]; [11]
  Pancreatic events positively adjudicated by PSAC: Acute on chronic pancreatitis: 0 Number (%)
  Pancreatic events positively adjudicated by PSAC: Acute pancreatitis: 0 Number (%)
  Pancreatic events positively adjudicated by PSAC: Chronic pancreatitis: 0 Number (%)
  Pancreatic events positively adjudicated by PSAC: Unknown pancreatitis: 0 Number (%)
  Patients with pancreatic events positively adjudicated by PSAC: Any with “Yes” for pancreatitis by PSAC: 0 Number (%)
